# From US6602687B1, “DNA encoding human ciliary neurotrophic factor and method for producing the protein encoded thereby” (Regeneron Pharmaceuticals, Inc., priority 1989, dated 2003)
# B1: CNTF: ciliary neurotrophic factor; recombinant rat CNTF in Sections 10, 15, 17, purified rat sciatic nerve CNTF in Section 11; see endpoint conditions (protein, UniProt P20294 1-200, looked up)
# Ciliary neurotrophic factor: MAFAEQTPLTLHRRDLCSRSIWLARKIRSDLTALMESYVKHQGLNKNINLDSVDGVPVASTDRWSEMTEAERLQENLQAYRTFQGMLTKLLEDQRVHFTPTEGDFHQAIHTLMLQVSAFAYQLEELMVLLEQKIPENEADGMPATVGDGGLFEKKLWGLKVLQELSQWTVRSIHDLRVISSHQMGISALESHYGAKDKQM
# Key:
# Assay type in all cases: cell-based
# [1] = system: Ventral spinal cord neurons; experiment: E14 rat ventral spinal cord neuron cultures in defined medium; settings: CNTF 2 μl/ml
# Description: Sprague-Dawley rats (HSD) were used for all experiments. Pregnant rats were sacrificed by carbon dioxide asphyxiation, and the embryos were rapidly removed and placed in ice-cold Puck's saline G for further dissection.
# Spinal cords were removed aseptically from rat embryos on the 14th day of gestation. The spinal cord was severed caudal to the bulb, freed of sensory ganglia and meninges. The cord was then subdivided into ventral and mediodorsal segments for separate cultures. The cord tissues were minced into small pieces and mechanically dissociated by trituration through a Pasteur pipet in defined culture medium consisting of 50% basal medium Eagle (BME; Gibco) and 50% Ham's nutrient mixture F12 (Gibco) supplemented with glucose (33 mM), glutamine (2 mM, NaHCO3 (15 mM), HEPES (10 mM), insulin (25 μg/ml), transferrin (100 μg/ml) putrescine (60 μM), progesterone (20 nM), Na selenite (30 nM), penicillin G (0.5 μg/ml), streptomycin (0.5 μg/ml), and bovine serum albumin (2.5 μg/ml). Trituration was repeated twice and the supernatants were pooled and filtered through a nylon (Nitex, Tetko) filter (40 μm). Total cell number yielded was determined by hemocytometer counting in the presence of trypan blue. Dissociated ventral cells were then plated at a density of 0.5 million cells/35 mm dish coated with poly-D-lysine (10 μg/ml). Dissociated mediodorsal cells were plated at a density of 1.5 million/35 mm dish coated with poly-D-lysine (10 μg/ml), poly-L-ornithine (10 μg/ml), or poly-L-ornithine with laminin (5 μg/ml). Treatments to these cultures were added at the time of plating. Cultures were maintained at 37° C. in a 95% air/5% CO2 atmosphere at nearly 100% relative humidity. Culture medium was changed every three to four days.
# [2] = system: E18-19 rat hippocampal neurons; experiment: High affinity GABA uptake in hippocampal cultures
# Description: (§1) Hippocampi were dissected from E18-19 rat embryos of Sprague-Dawley rats, and collected in F10 medium. The tissues were minced, rinsed twice with F10 medium (Gibco) and trypsinized with 0.25% trypsin (Gibco) for 20 minutes at 37° C. Trypsin was inactivated by the addition of a serum-containing medium composed of minimal essential medium (MEM) supplemented with fetal calf serum (FCS, 10%), glutamine (2 mM), penicillin (25 U/ml) and streptomycin (25 ug/ml). Dissociated cells obtained by gentle trituration were collected and centrifuged at low speed (500 rpm) for 30 seconds. The centrifugation was repeated twice, and the cell pellets were then resuspended in serum-containing medium. The cells were then plated onto 6 mm wells or 35 mm dishes that were coated with polyornithine (10 ug/ml) and laminin (10 ug/ml). In most of the experiments, the cells were plated at a low density of approximately 71,000 cells/cm^2. Five to six hours following the plating of cells, medium was changed to a serum-free medium containing 1% N3 and penicillin-streptomycin (25 units/ml and 25 ug/ml, respectively), at which time CNTF was added. Medium was changed every three to four days, with re-addition of the factor.
# To obtain neuron-enriched cultures, cytosine arabinoside (Ara-C, 0.3 uM) was added for a period of 24 hours. Under such condition, the hippocampal cultures contain approximately 5-10% glial cells, as assessed by GFAP immunohistochemistry.
# Uptake of GABA into non-neuronal cells was inhibited by the additional of 2 mM B-alanine, whereas uptake specific for neurons is verified by inhibition with nipecotic acid at 1 mM.
# (§2) The CNTF used in all assays was recombinant rat CNTF, expressed and purified as described in Example Section 12 supra.
# [3] = system: E18-19 rat hippocampal neurons; experiment: Neurofilament protein in hippocampal cultures
# Description: as §1
# Neurofilament protein was quantitated according to the method of Doherty et al. (1984, J. Neurochem. 42:1115-1122), as is described in Section 14.1.3.
# as §2
molecule,measurement,setting,value
B1,time ventral neurons survive in defined medium,[1],> 1 week
same,CAT Activity,"[1]; NGF 50 ng/ml at plating, day 7",959.5 ± 24.32 CPM/dish
same,Protein,"[1]; NGF 50 ng/ml at plating, day 7",45 μg/dish
same,increase in Gaba uptake at low plating density,"[2]; 71,000 cells/cm2, CNTF 10 ng/ml, 8 days",approximately 2.6 fold
same,increase in Gaba uptake at higher plating density,"[2]; 143,000 cells/cm2, CNTF 10 ng/ml",failed to induce a significant increase
same,concentration of CNTF required for a maximal response in GABA uptake,[2]; AraC-treated neuron-enriched cultures,0.03 ng/mL
same,"increase in Gaba uptake, CNTF added on the third day and cells treated for 8 days",[2]; CNTF 10 ng/ml,failed to induce increase in Gaba uptake
same,"CNTF-induced increase in GABA uptake, addition delayed by one day","[2]; CNTF 10 ng/ml, assayed 7 days later",lowered
same,"CNTF-induced increase in GABA uptake, addition on the third day after plating","[2]; CNTF 10 ng/ml, uptake on the eighth day in culture",no longer produced an increase in GABA uptake
same,increase in Gaba uptake versus untreated controls in AraC-treated cultures,"[2]; neuron-enriched cultures, cytosine arabinoside 0.3 uM for 24 h, 8 days",2.4 fold
same,concentration of CNTF required for a maximal response in GABA uptake,[2]; neuron-glia mixed cultures (−AraC),0.1 ng/mL
same,maximal increase in specific neuronal GABA uptake (dose response),[2]; recombinant rat CNTF 0.1 ng/ml for 8 days,approximately 3 fold
same,maximal increase in specific neuronal GABA uptake versus untreated controls,"[2]; recombinant rat CNTF 10 ng/ml, 8 days after addition, 71,000 cells/cm2",approximately 4 fold
same,concentration at which specific neuronal GABA uptake was increased,"[2]; recombinant rat CNTF, 8 days",0.01 ng/mL
same,"effect on neurofilament protein, CNTF added on the third day and cells treated for 8 days",[3]; CNTF 10 ng/ml,much reduced
same,"CNTF-induced increase in neurofilament protein, addition delayed by 3 days","[3]; CNTF 10 ng/ml, measured on the eighth day",similarly diminished
same,maximal increase in neurofilament protein,"[3]; recombinant rat CNTF 10 ng/ml, day 8",approximately 5 fold
same,concentration at which neurofilament protein reaches a plateau,"[3]; recombinant rat CNTF, 8 days",0.1 ng/mL
